B1: AP-2 complex subunit mu (Rattus norvegicus (Rat)), P84092 (parent)
chain: MIGGLFIYNHKGEVLISRVYRDDIGRNAVDAFRVNVIHARQQVRSPVTNIARTSFFHVKRSNIWLAAVTKQNVNAAMVFEFLYKMCDVMAAYFGKISEENIKNNFVLIYELLDEILDFGYPQNSETGALKTFITQQGIKSQHQTKEEQSQITSQVTGQIGWRREGIKYRRNELFLDVLESVNLLMSPQGQVLSAHVSGRVVMKSYLSGMPECKFGMNDKIVIEKQGKGTADETSKSGKQSIAIDDCTFHQCVRLSKFDSERSISFIPPDGEFELMRYRTTKDIILPFRVIPLVREVGRTKLEVKVVIKSNFKPSLLAQKIEVRIPTPLNTSGVQVICMKGKAKYKASENAIVWKIKRMAGMKESQISAEIELLPTNDKKKWARPPISMNFEVPFAPSGLKVRYLKVFEPKLNYSDHDVIKWVRYIGRSGIYETRC

Variants of: B1
Conditions: with ap2b1_human AP2B1, P63010
Chain of ap2b1_human AP2B1, P63010 (P63010 whole entry): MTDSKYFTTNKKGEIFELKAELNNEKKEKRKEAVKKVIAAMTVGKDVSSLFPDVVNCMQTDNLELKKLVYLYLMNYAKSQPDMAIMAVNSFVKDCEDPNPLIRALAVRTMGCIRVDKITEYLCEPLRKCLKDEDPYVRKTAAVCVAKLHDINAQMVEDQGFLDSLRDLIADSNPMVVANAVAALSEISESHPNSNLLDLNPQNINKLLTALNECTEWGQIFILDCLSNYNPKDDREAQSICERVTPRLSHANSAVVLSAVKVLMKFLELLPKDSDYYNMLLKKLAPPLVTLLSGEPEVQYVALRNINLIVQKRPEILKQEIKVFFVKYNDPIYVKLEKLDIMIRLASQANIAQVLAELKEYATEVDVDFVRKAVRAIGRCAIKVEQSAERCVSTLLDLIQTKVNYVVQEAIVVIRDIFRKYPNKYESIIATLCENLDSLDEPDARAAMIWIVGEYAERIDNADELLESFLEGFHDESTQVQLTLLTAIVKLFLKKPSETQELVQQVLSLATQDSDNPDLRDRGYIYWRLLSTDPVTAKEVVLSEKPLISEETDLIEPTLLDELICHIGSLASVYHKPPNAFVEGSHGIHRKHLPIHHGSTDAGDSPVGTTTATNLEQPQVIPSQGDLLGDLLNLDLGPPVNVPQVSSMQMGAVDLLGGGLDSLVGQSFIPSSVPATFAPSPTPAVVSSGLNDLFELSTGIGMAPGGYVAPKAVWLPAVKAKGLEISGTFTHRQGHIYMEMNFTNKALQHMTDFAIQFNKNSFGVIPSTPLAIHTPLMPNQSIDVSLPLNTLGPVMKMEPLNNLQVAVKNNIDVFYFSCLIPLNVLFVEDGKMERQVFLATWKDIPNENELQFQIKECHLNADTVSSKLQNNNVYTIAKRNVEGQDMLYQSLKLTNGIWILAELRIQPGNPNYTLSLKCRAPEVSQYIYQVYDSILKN

Row | Variant | effect of a mutation on the interaction
1 | MIGGLFIYNHKGEVLISRVYRDDIGRNAVDAFRVNVIHARQQVRSPVTNIARTSFFHVKRSNIWLAAVTKQNVNAAMVFEFAYKMCDVMAAYFGKISEENIKNNFVLIYELLDEILDFGYPQNSETGALKTFITQQGIKSQHQTKEEQSQITSQVTGQIGWRREGIKYRRNELFLDVLESVNLLMSPQGQVLSAHVSGRVVMKSYLSGMPECKFGMNDKIVIEKQGKGTADETSKSGKQSIAIDDCTFHQCVRLSKFDSERSISFIPPDGEFELMRYRTTKDIILPFRVIPLVREVGRTKLEVKVVIKSNFKPSLLAQKIEVRIPTPLNTSGVQVICMKGKAKYKASENAIVWKIKRMAGMKESQISAEIELLPTNDKKKWARPPISMNFEVPFAPSGLKVRYLKVFEPKLNYSDHDVIKWVRYIGRSGIYETRC [L82A] | decreasing interaction
2 | MIGGLFIYNHKGEVLISRVYRDDIGRNAVDAFRVNVIHARQQVRSPVTNIARTSFFHVKRSNIWLAAVTKQNVNAAMVFEFLAKMCDVMAAYFGKISEENIKNNFVLIYELLDEILDFGYPQNSETGALKTFITQQGIKSQHQTKEEQSQITSQVTGQIGWRREGIKYRRNELFLDVLESVNLLMSPQGQVLSAHVSGRVVMKSYLSGMPECKFGMNDKIVIEKQGKGTADETSKSGKQSIAIDDCTFHQCVRLSKFDSERSISFIPPDGEFELMRYRTTKDIILPFRVIPLVREVGRTKLEVKVVIKSNFKPSLLAQKIEVRIPTPLNTSGVQVICMKGKAKYKASENAIVWKIKRMAGMKESQISAEIELLPTNDKKKWARPPISMNFEVPFAPSGLKVRYLKVFEPKLNYSDHDVIKWVRYIGRSGIYETRC [Y83A] | decreasing interaction
3 | MIGGLFIYNHKGEVLISRVYRDDIGRNAVDAFRVNVIHARQQVRSPVTNIARTSFFHVKRSNIWLAAVTKQNVNAAMVFEFLYKMCDVMAAYFGKASEENIKNNFVLIYELLDEILDFGYPQNSETGALKTFITQQGIKSQHQTKEEQSQITSQVTGQIGWRREGIKYRRNELFLDVLESVNLLMSPQGQVLSAHVSGRVVMKSYLSGMPECKFGMNDKIVIEKQGKGTADETSKSGKQSIAIDDCTFHQCVRLSKFDSERSISFIPPDGEFELMRYRTTKDIILPFRVIPLVREVGRTKLEVKVVIKSNFKPSLLAQKIEVRIPTPLNTSGVQVICMKGKAKYKASENAIVWKIKRMAGMKESQISAEIELLPTNDKKKWARPPISMNFEVPFAPSGLKVRYLKVFEPKLNYSDHDVIKWVRYIGRSGIYETRC [I96A] | decreasing interaction

Variants of: B1
Conditions: with tgon3_rat Ttgn1, P19814
Chain of tgon3_rat Ttgn1, P19814 (P19814 whole entry): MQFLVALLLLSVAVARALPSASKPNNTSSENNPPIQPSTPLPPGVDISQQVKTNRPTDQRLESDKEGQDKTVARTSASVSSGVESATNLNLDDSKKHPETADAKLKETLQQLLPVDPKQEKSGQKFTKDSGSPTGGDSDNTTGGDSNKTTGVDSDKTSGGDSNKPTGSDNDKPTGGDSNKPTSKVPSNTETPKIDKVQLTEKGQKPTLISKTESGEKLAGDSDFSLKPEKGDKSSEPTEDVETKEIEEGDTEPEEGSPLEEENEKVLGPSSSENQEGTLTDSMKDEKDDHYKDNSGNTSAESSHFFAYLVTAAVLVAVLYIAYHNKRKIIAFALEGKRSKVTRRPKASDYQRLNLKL

Row | Variant | effect of a mutation on the interaction
4 | MIGGLFIYNHKGEVLISRVYRDDIGRNAVDAFRVNVIHARQQVRSPVTNIARTSFFHVKRSNIWLAAVTKQNVNAAMVFEFLYKMCDVMAAYFGKISEENIKNNFVLIYELLDEILDFGYPQNSETGALKTFITQQGIKSQHQTKEEQSQITSQVTGQIGWRREGIKYRRNELFLDVLESVNLLMSPQGQVLSAHVSGRVVMKSYLSGAPECKFGMNDKIVIEKQGKGTADETSKSGKQSIAIDDCTFHQCVRLSKFDSERSISFIPPDGEFELMRYRTTKDIILPFRVIPLVREVGRTKLEVKVVIKSNFKPSLLAQKIEVRIPTPLNTSGVQVICMKGKAKYKASENAIVWKIKRMAGMKESQISAEIELLPTNDKKKWARPPISMNFEVPFAPSGLKVRYLKVFEPKLNYSDHDVIKWVRYIGRSGIYETRC [M209A] | decreasing interaction
5 | MIGGLFIYNHKGEVLISRVYRDDIGRNAVDAFRVNVIHARQQVRSPVTNIARTSFFHVKRSNIWLAAVTKQNVNAAMVFEFLYKMCDVMAAYFGKISEENIKNNFVLIYELLDEILDFGYPQNSETGALKTFITQQGIKSQHQTKEEQSQITSQVTGQIGWRREGIKYRRNELFLDVLESVNLLMSPQGQVLSAHVSGRVVMKSYLSGMPECKFGMNDKIVIEKQGKGTADETSKSGKQSIAIDDCTFHQCVRLSKFDSERSISAIPPDGEFELMRYRTTKDIILPFRVIPLVREVGRTKLEVKVVIKSNFKPSLLAQKIEVRIPTPLNTSGVQVICMKGKAKYKASENAIVWKIKRMAGMKESQISAEIELLPTNDKKKWARPPISMNFEVPFAPSGLKVRYLKVFEPKLNYSDHDVIKWVRYIGRSGIYETRC [F265A] | decreasing interaction
6 | MIGGLFIYNHKGEVLISRVYRDDIGRNAVDAFRVNVIHARQQVRSPVTNIARTSFFHVKRSNIWLAAVTKQNVNAAMVFEFLYKMCDVMAAYFGKISEENIKNNFVLIYELLDEILDFGYPQNSETGALKTFITQQGIKSQHQTKEEQSQITSQVTGQIGWRREGIKYRRNELFLDVLESVNLLMSPQGQVLSAHVSGRVVMKSYLSGMPECKFGMNDKIVIEKQGKGTADETSKSGKQSIAIDDCTFHQCVRLSKFDSERSISFIPPAGEFELMRYRTTKDIILPFRVIPLVREVGRTKLEVKVVIKSNFKPSLLAQKIEVRIPTPLNTSGVQVICMKGKAKYKASENAIVWKIKRMAGMKESQISAEIELLPTNDKKKWARPPISMNFEVPFAPSGLKVRYLKVFEPKLNYSDHDVIKWVRYIGRSGIYETRC [D269A] | decreasing interaction
7 | MIGGLFIYNHKGEVLISRVYRDDIGRNAVDAFRVNVIHARQQVRSPVTNIARTSFFHVKRSNIWLAAVTKQNVNAAMVFEFLYKMCDVMAAYFGKISEENIKNNFVLIYELLDEILDFGYPQNSETGALKTFITQQGIKSQHQTKEEQSQITSQVTGQIGWRREGIKYRRNELFLDVLESVNLLMSPQGQVLSAHVSGRVVMKSYLSGMPECKFGMNDKIVIEKQGKGTADETSKSGKQSIAIDDCTFHQCVRLSKFDSERSISFIPPDAEFELMRYRTTKDIILPFRVIPLVREVGRTKLEVKVVIKSNFKPSLLAQKIEVRIPTPLNTSGVQVICMKGKAKYKASENAIVWKIKRMAGMKESQISAEIELLPTNDKKKWARPPISMNFEVPFAPSGLKVRYLKVFEPKLNYSDHDVIKWVRYIGRSGIYETRC [G270A] | decreasing interaction

Reference: IntAct's records for PubMed 9341158
